The values that follow come from ChEMBL document CHEMBL1136535, “Unexpected inhibition of S-adenosyl-L-homocysteine hydrolase by a guanosine nucleoside” (Bioorg Med Chem Lett, 2003).

Substrate in data set [1]: Nc1nc(O)cc(-c2cncn2C2O[C@H](CO)[C@@H](O)[C@H]2O)n1
Description: Enzyme kinetic constant for S-adenosyl-L-homocysteine hydrolase; Not a substrate.

Substrate in data set [2]: OC[C@H]1OC(n2cncc2-c2cc(O)ncn2)[C@H](O)[C@@H]1O
Description: (§1) Enzyme kinetic constant for S-adenosyl-L-homocysteine hydrolase.

Substrate in data set [3]: O=c1[nH]cnc2c1ncn2[C@@H]1O[C@H](CO)[C@@H](O)[C@H]1O
Described as §1.

Substrate in data set [4]: Nc1nc2c(ncn2[C@@H]2O[C@H](CO)[C@@H](O)[C@H]2O)c(=O)[nH]1
The description is as §1.

Substrate in data set [5]: Nc1ncnc2c1ncn2[C@@H]1O[C@H](CO)[C@@H](O)[C@H]1O
Described as §1.

Substrate in data set [6]: Nc1cc(-c2cncn2C2O[C@H](CO)[C@@H](O)[C@H]2O)ncn1
The data set is described as §1.

Substrate in data set [7]: Nc1nc(O)cc(-c2cncn2C2O[C@H](CO)[C@@H](O)[C@H]2O)n1
Description: Enzyme kinetic constant for S-adenosyl-L-homocysteine hydrolase in hydrolysis direction.

B1: Adenosylhomocysteinase (Homo sapiens), P23526 (protein)
chain: MSDKLPYKVADIGLAAWGRKALDIAENEMPGLMRMRERYSASKPLKGARIAGCLHMTVETAVLIETLVTLGAEVQWSSCNIFSTQDHAAAAIAKAGIPVYAWKGETDEEYLWCIEQTLYFKDGPLNMILDDGGDLTNLIHTKYPQLLPGIRGISEETTTGVHNLYKMMANGILKVPAINVNDSVTKSKFDNLYGCRESLIDGIKRATDVMIAGKVAVVAGYGDVGKGCAQALRGFGARVIITEIDPINALQAAMEGYEVTTMDEACQEGNIFVTTTGCIDIILGRHFEQMKDDAIVCNIGHFDVEIDVKWLNENAVEKVNIKPQVDRYRLKNGRRIILLAEGRLVNLGCAMGHPSFVMSNSFTNQVMAQIELWTHPDKYPVGVHFLPKKLDEAVAEAHLGKLNVKLTKLTEKQAQYLGMSCDGPFKPDHYRY
As to B1, the Km result in data set [1] was “Not a substrate”; in data set [2], 421 µM; in data set [3], 2.5 µM; in data set [4] it was 844 µM; in data set [5], 0.82 µM; in data set [6], 54.4 µM. Moreover, the Km in data set [7] was determined as 6.6 µM.

Usually Km stands for the substrate concentration at which the rate is half of its maximum.
